Read-outs that look alike come from different tables or passages of the source.
How the values were obtained:
[1] = biological target: T1, HER3 D3-4: CD33-[Human HER3, residues 330-643]-TAG (human, UniProt P21860 330-643); experiment: ELISA on coated recombinant protein, antibody titrated (Example 7); readout on the sheet is Fluorescence Units
T1 construct: also called D3-4-Tag; isolated domains 3-4; not shown: C-terminal TAG (e.g., FLAG TAG)

[2] = biological target: T2, HER3 D2: CD33-[Human HER3, residues 185-329]-TAG (human, UniProt P21860 185-329); experiment: as above
T2 construct: also called D2-Tag; isolated D2 protein; not shown: C-terminal TAG (e.g., FLAG TAG)
T2 sequence (P21860 185-329): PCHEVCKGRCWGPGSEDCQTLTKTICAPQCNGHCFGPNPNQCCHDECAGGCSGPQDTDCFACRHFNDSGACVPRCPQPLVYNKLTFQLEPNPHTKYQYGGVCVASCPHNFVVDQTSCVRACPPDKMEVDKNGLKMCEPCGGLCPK

[3] = biological target: T3, HER3 D4: CD33-[Human HER3, residues 496-643]-TAG (human, UniProt P21860 496-643); experiment: as above
T3 construct: also called D4-Tag; isolated domain 4; not shown: C-terminal TAG (e.g., FLAG TAG)
T3 sequence (P21860 496-643): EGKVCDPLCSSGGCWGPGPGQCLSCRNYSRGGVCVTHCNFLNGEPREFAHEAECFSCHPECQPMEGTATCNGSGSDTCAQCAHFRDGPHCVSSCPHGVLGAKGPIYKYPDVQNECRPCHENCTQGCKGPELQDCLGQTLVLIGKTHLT

[4] = biological target: T4, Human HER3, endogenous, on human cancer cell lines (SK-Br-3, MCF7, BT-474) (human, UniProt P21860 20-1342); experiment: cell-based or functional assay
T4 sequence (P21860 20-1342): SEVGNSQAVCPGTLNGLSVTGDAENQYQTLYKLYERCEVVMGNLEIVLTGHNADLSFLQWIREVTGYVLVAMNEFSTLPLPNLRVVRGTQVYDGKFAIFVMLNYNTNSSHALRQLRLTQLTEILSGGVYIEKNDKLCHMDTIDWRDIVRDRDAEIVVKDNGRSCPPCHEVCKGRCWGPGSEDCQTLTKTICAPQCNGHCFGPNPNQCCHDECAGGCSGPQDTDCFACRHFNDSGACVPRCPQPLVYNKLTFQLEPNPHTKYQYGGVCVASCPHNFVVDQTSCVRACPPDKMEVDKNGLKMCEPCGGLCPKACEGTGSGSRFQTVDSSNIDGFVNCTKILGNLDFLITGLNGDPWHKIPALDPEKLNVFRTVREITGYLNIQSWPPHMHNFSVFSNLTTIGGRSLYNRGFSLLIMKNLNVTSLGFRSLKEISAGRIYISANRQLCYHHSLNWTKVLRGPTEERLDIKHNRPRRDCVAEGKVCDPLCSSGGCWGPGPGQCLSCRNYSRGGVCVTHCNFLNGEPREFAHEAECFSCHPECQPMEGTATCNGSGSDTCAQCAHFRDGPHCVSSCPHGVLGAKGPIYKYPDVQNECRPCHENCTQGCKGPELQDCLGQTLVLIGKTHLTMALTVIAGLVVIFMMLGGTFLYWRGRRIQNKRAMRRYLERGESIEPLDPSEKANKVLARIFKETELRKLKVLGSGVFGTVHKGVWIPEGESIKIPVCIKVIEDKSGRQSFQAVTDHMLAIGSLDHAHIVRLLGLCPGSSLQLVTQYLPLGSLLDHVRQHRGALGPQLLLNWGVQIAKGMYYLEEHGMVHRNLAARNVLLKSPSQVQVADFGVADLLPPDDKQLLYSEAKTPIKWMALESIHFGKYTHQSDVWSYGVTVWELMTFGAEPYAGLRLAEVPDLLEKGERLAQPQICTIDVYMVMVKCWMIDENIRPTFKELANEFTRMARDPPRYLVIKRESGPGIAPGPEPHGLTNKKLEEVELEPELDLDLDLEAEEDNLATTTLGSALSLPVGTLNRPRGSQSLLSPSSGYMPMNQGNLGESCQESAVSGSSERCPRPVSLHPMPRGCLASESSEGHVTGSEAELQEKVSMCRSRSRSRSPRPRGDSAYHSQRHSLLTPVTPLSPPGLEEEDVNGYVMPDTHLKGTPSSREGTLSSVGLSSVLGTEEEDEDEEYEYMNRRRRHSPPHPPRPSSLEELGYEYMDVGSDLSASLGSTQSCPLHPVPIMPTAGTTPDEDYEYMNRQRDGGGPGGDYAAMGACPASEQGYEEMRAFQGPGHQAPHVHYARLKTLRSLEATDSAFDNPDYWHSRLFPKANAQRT

[5] = biological target: T4, Human HER3, endogenous, on human cancer …; experiment: cell-based or functional assay; remark: listed apart in the source
[6] = biological target: T4, Human HER3, endogenous, on human cancer …; experiment: cell-based or functional assay; remark: listed apart in the source
[7] = biological target: T5, Rat HER3: CD33-[Rat HER3, residues 20-643]-TAG (rat, UniProt Q62799 20-643); experiment: SET, IgG vs soluble HER3-Tag
T5 construct: also called ra HER3-Tag; not shown: C-terminal TAG (e.g., FLAG TAG)
T5 sequence (Q62799 20-643): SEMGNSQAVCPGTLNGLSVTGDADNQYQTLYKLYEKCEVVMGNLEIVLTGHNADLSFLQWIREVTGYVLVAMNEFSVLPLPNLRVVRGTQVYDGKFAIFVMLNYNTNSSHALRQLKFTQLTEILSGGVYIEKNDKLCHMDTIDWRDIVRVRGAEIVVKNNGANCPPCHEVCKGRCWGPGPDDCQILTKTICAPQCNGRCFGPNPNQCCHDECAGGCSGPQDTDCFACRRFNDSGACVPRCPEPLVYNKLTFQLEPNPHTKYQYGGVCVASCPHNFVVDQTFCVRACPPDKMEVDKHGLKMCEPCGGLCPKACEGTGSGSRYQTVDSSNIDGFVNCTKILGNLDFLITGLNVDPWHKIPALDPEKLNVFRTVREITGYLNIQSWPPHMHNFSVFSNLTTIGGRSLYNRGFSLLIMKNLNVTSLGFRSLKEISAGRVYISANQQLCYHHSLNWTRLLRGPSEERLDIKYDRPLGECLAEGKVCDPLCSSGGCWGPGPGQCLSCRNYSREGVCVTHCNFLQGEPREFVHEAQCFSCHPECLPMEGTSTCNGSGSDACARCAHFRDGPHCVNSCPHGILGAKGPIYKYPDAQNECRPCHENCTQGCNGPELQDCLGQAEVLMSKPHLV
Method: (§1) Affinity determination in solution was essentially performed as previously described (Friguet et al., (1985) J Immunol Methods 77:305-19). In order to improve the sensitivity and accuracy of the SET method, it was transferred from classical ELISA to ECL based technology (Haenel et al., (2005) Anal Biochem 339:182-84).
(§2) The data was evaluated with XLfit software (ID Business Solutions) applying customized fitting models.
(§3) Antibody affinity was determined by solution equilibrium titration (SET) as described above. The results are summarized in Table 3 and example titration curves for MOR12616 and MOR12925 are contained in FIG. 1.

[8] = biological target: T6, Mu HER3: CD33-[Murine HER3, residues 20-643]-TAG (murine, UniProt Q61526 20-643); experiment: SET, IgG vs soluble HER3-Tag
T6 construct: also called mu HER3-Tag; not shown: C-terminal TAG (e.g., FLAG TAG)
T6 sequence (Q61526 20-643): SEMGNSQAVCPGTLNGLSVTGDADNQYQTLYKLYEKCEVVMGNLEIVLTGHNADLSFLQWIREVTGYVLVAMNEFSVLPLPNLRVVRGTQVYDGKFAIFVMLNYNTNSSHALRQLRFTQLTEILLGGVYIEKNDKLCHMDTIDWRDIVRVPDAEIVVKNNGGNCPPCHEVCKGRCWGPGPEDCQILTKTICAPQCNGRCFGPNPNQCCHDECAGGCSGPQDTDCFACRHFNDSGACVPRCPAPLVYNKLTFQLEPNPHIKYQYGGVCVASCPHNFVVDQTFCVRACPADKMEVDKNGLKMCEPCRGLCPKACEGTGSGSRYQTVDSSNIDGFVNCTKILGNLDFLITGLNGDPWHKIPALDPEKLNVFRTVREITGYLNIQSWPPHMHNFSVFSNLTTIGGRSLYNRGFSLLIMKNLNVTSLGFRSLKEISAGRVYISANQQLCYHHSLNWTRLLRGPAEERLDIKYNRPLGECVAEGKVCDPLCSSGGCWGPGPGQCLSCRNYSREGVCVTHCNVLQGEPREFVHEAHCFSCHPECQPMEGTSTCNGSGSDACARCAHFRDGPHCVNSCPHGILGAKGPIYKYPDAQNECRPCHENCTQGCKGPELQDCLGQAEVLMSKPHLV
Method: as §1, §2, §3

[9] = biological target: T7, Hu HER3: CD33-[Human HER3, residues 20-640]-TAG (human, UniProt P21860 20-640); experiment: SET, IgG vs soluble HER3-Tag
T7 construct: also called hu HER3-Tag; HER3-Tag; not shown: C-terminal TAG (e.g., FLAG TAG)
T7 sequence (P21860 20-640): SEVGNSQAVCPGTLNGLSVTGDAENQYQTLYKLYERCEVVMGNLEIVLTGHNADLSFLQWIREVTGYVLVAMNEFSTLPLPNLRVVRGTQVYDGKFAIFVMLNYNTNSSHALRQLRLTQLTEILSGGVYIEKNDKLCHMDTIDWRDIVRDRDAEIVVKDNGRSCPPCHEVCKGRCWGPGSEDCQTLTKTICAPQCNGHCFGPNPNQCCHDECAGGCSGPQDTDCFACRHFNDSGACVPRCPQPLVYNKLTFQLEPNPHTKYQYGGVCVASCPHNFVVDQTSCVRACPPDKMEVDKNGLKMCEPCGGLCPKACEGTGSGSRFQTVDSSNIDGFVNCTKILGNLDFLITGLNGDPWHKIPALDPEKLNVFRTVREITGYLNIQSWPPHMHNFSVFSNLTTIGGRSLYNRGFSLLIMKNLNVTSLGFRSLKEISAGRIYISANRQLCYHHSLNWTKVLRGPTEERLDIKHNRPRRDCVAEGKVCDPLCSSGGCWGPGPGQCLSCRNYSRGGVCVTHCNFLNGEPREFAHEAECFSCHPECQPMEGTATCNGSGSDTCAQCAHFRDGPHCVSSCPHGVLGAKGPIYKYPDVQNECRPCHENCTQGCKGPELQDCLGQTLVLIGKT
Method: as §1, §2, §3

[10] = biological target: T8, Cyno HER3: CD33-[Cyno HER3, residues 20-643]-TAG (cynomolgus, UniProt G7PIG5 20-643); experiment: SET, IgG vs soluble HER3-Tag
T8 construct: also called cy HER3-Tag; not shown: C-terminal TAG (e.g., FLAG TAG)
T8 sequence (G7PIG5 entry or part of it): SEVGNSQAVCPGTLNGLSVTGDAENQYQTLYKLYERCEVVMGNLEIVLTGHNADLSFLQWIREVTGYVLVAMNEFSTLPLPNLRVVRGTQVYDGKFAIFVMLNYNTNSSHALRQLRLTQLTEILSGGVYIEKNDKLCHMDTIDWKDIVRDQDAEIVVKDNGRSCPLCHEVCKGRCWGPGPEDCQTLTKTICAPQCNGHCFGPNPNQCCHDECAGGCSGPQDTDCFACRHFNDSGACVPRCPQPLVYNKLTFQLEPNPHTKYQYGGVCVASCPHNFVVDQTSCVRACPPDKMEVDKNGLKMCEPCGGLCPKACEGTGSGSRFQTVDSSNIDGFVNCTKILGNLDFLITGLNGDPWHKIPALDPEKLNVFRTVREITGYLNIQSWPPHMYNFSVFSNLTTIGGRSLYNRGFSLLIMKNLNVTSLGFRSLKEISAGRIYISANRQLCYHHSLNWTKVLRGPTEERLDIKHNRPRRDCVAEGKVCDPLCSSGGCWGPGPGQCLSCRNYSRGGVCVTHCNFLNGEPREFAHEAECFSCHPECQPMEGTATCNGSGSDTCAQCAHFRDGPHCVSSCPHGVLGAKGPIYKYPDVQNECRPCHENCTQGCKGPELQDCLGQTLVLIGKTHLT
Method: as §1, §2, §3

[11] = biological target: T7, Hu HER3: CD33-[Human HER3, residues …; experiment: binding ELISA on human HER3 (WT), IgG titrated (Example 7); fluorescence 435/530 nm
HER3 on JTC12 cells = biological target: T9, HER3 on JTC12 cells; experiment: FACS titration on JTC12 cells
T9 construct: whole, on cells

[12] = biological target: T4, Human HER3, endogenous, on human cancer …; experiment: FACS titration on SK-Br-3 cells
Method: The binding of antibodies to endogenous human antigen expressed on human cancer cells was accessed by FACS. In order to determine antibody EC₅₀ values SK-Br-3 cells were harvested with accutase and diluted to 1×10⁶ cells/mL in FACS buffer (PBS/3% FBS/0.2% NaN₃). 1×10⁵ cells/well were added to each well of a 96-well plate (Nunc) and centrifuged at 210 g for 5 minutes at 4° C. before removing the supernatant. Serial dilutions of test antibodies (diluted in 1:4 dilution steps with FACS buffer) were added to the pelleted cells and incubated for 1 hour on ice. The cells were washed and pelleted three times with 100 μL FACS buffer. PE conjugated goat anti-human IgG (Jackson ImmunoResearch) diluted 1/200 with FACS buffer were added to the cells and incubated on ice for 1 hour. Additional washing steps were performed three times with 100 μL FACS buffer followed by centrifugation steps at 210 g for 5 minutes at 4° C. Finally, cells were resuspended in 200 μL FACS buffer and fluorescence values were measured with a FACSArray (BD Biosciences). The amount of cell surface bound anti-HER3 antibody was assessed by measuring the mean channel fluorescence.
The ability of the identified antibodies to bind HER3 expressing cells was determined by calculating EC₅₀ values for their binding to the HER2 amplified cell line SK-Br-3 (see FIG. 2 and Table 4).

HER3 on B16-F10 cells = biological target: T10, HER3 on B16-F10 cells (UniProt Q61526 20-1339); experiment: FACS titration on B16-F10 cells
T10 construct: whole, on cells

[13] = biological target: T1, HER3 D3-4: CD33-[Human HER3, residues …; experiment: ELISA on coated recombinant protein, antibody titrated (Example 7); readout on the sheet is Fluorescence Units; remark: listed apart in the source
[14] = biological target: T2, HER3 D2: CD33-[Human HER3, residues …; experiment: as above; remark: listed apart in the source
[15] = biological target: T3, HER3 D4: CD33-[Human HER3, residues …; experiment: as above; remark: listed apart in the source

T1 sequence (P21860 330-643): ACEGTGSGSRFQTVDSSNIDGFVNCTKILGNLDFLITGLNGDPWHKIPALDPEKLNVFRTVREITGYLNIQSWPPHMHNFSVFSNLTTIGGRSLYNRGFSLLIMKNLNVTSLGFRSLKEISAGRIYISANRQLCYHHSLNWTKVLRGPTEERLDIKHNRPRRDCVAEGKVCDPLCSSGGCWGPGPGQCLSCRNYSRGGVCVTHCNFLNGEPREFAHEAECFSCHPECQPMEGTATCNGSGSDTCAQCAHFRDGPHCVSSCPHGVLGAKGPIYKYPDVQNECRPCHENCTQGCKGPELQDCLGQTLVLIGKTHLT

Row | Binder | BT-474 pAkt (S473) % inhibition [4] [%] | BT-474 pAkt (S473) IC50 [4] [pM] | MCF7 pAkt (S473) % inhibition [4] [%] | MCF7 pAkt (S473) IC50 [4] [pM] | SK-Br-3 pAkt (S473) % inhibition [4] [%] | SK-Br-3 pAkt (S473) IC50 [4] [pM] | BT-474 proliferation % inhibition [5] [%] | BT-474 proliferation IC50 [5] [nM] | MCF7 proliferation % inhibition [5] [%] | MCF7 proliferation IC50 [5] [nM] | SK-Br-3 proliferation % inhibition [5] [%] | SK-Br-3 proliferation IC50 [5] [nM] | MCF7 pHER3 % inhibition [6] [%] | MCF7 pHER3 IC50 [6] [pM] | SK-Br-3 pHER3 % inhibition [6] [%] | SK-Br-3 pHER3 IC50 [6] [pM] | Kd [7] [nM] | Kd [8] [nM] | Kd [9] [nM] | Kd [10] [nM] | also measured
1 | MOR12616 (antibody, human IgG1, kappa, V domains shown, tested as IgG) VH: QVQLVQSGAEVKKPGESLKISCKGSGYSFTNSWVAWVRQMPGKGLEWMGIIYPGNSDTIYSPSFQGQVTISADKSISTAYLQWSSLKASDTAMYYCARVHIIQPPSAWSYNAMDVWGQGTLVTVSS VL: DIQMTQSPSSLSASVGDRVTITCRASQSISTYLNWYQQKPGKAPKLLIFGASNLQSGVPSRFSGSGSGTDFTLTISSLQPEDFATYYCQQSITELFTFGQGTKVEIKR | 78 | 316 | 80 | 442 | 89 | 88 | 45 | 0.635 | 32 | 0.415 | 48 | 0.123 | 76 | 245 | 75 | 142 | 0.122 | 0.041 | 0.02 | 0.074 | binding result [1]: no binding (tested: 10 µg/ml); EC50 (read off the curve) [2]: ~0.2 µg/mL; binding result [3]: no binding (tested: 10 µg/ml); BT474 pHER3 % inhibition [6]: 58%; BT474 pHER3 IC50 [6]: 436 pM; EC50 (read off the curve) [11]: ~0.1 nM
2 | MOR14536 (antibody, human IgG1, kappa, V domains shown, tested as IgG) VH: EVQLVQSGAEVKKPGESLKISCKGSGYSFSNYWIAWVRQMPGKGLEWMGIIYPGQSDTIYSPSFQGQVTISADKSISTAYLQWSSLKASDTAMYYCARVHIIQPPSAWSYNAMDVWGQGTLVTVSS VL: DIQMTQSPSSLSASVGDRVTITCRASQSISTYLNWYQQKPGKAPKLLIYGASNLQSGVPSRFSGSGSGTDFTLTISSLQPEDFATYYCQQSITELFTFGQGTKVEIKR |  |  |  |  |  |  |  |  |  |  | 56 | 0.181 | 83 | 379 | 76 | 239 | 0.064 | 0.029 | 0.072 | 0.044 | EC50 (HER3 on JTC12 cells): 1.36 nM; EC50 [12]: 1.27 nM; EC50 (HER3 on B16-F10 cells): 0.625 nM

Continued, in another order:

Row | BT-474 pAkt (S473) % inhibition [4] [%] | BT-474 pAkt (S473) IC50 [4] [pM] | MCF7 pAkt (S473) % inhibition [4] [%] | MCF7 pAkt (S473) IC50 [4] [pM] | SK-Br-3 pAkt (S473) % inhibition [4] [%] | SK-Br-3 pAkt (S473) IC50 [4] [pM] | BT-474 proliferation % inhibition [5] [%] | BT-474 proliferation IC50 [5] [nM] | MCF7 proliferation % inhibition [5] [%] | MCF7 proliferation IC50 [5] [nM] | SK-Br-3 proliferation % inhibition [5] [%] | SK-Br-3 proliferation IC50 [5] [nM] | MCF7 pHER3 % inhibition [6] [%] | MCF7 pHER3 IC50 [6] [pM] | SK-Br-3 pHER3 % inhibition [6] [%] | SK-Br-3 pHER3 IC50 [6] [pM] | Kd [7] [nM] | Kd [8] [nM] | Kd [9] [nM] | Kd [10] [nM] | Binder | also measured
3 |  |  |  |  |  |  |  |  |  |  | 66 | 0.271 | 73 | 533 | 76 | 231 | 0.315 | 0.125 | 0.235 | 0.215 | MOR14535 (antibody, human IgG1, kappa, V domains shown, tested as IgG) VH: EVQLVQSGAEVKKPGESLKISCKGSGYSFTTTWVAWVRQMPGKGLEWMGIIYPGLSDTIYSPSFQGQVTISADKSISTAYLQWSSLKASDTAMYYCARVHIIQPPSAWSYNAMDVWGQGTLVTVSS VL: DIQMTQSPSSLSASVGDRVTITCRASQSISTYLNWYQQKPGKAPKLLIYGASNLQSGVPSRFSGSGSGTDFTLTISSLQPEDFATYYCQQSITELFTFGQGTKVEIKR | EC50 (HER3 on JTC12 cells): 65.1 nM; EC50 [12]: 2.08 nM; EC50 (HER3 on B16-F10 cells): 0.524 nM
4 | 80 | 255 | 82 | 295 | 88 | 93 | 47 | 0.522 | 47 | 0.604 | 40 | 0.101 | 81 | 327 | 75 | 136 | 0.1 | 0.038 | 0.028 | 0.074 | MOR12925 (antibody, human IgG1, kappa, V domains shown, tested as IgG) VH: QVQLVQSGAEVKKPGESLKISCKGSGYSFSNYWIAWVRQMPGKGLEWMGIIYPGNSDTIYSPSFQGQVTISADKSISTAYLQWSSLKASDTAMYYCARVHIIQPPSAWSYNAMDVWGQGTLVTVSS VL: DIQMTQSPSSLSASVGDRVTITCRASQSISTYLNWYQQKPGKAPKLLIFGASNLQSGVPSRFSGSGSGTDFTLTISSLQPEDFATYYCQQSITELFTFGQGTKVEIKR | BT474 pHER3 % inhibition [6]: 63%; BT474 pHER3 IC50 [6]: 2160 pM; binding result [13]: no binding (tested: 10 µg/ml); EC50 (read off the curve) [14]: ~0.1 µg/mL; binding result [15]: no binding (tested: 10 µg/ml); EC50 (read off the curve) [11]: ~0.1 nM

Reference: patent US20130273029A1 (Novartis, published 2013)
